The values below come from US5942602.

The target of assay [1] is human full-length EGF receptor (human) (UniProt P00533).
Assay [2] deals with EGFRvIII (human) (UniProt P00533).
The target of assay [3] is human full-length EGF receptor (human) (UniProt P00533). The source holds these as a separate data set.
In assay [4] the target is EGFRvIII (human) (UniProt P00533). The source holds these as a separate data set.
For assay [5], the target named is human full-length EGF receptor (human) (UniProt P00533). The source holds these as a separate data set.

A value given as a limit tells only on which side of the number the result lay.

For the substance TGFα-ETA (from UniProt P01135), the IC50 of cell killing, SKBR3 cells, 40 h in assay [1] stood at 0.09 µg/mL. This substance also showed an IC50 of cell killing, DH-EΔ801-P cells, 40 h with EGFRvIII (human) [2] of 0.7 µg/mL. This substance returned an IC50 of cell killing, DH-EGFR-E cells, 40 h in assay [3] of 0.042 µg/mL. The IC50 of cell killing, DH-EΔ801-5 cells, 40 h with EGFRvIII (human) [4] was above 1 µg/mL.

scFv(225): in assay [5], the competition of TGFα-ETA (100 ng/ml) cytotoxicity by 10 µg/ml scFv, 40 h; MDA-MB468 cells (also A431 and SKBR3) (% cell killing) stood at 63.
